Assay [1] deals with T1, recombinant human IL-13 (human, UniProt P35225 35-146). Nature of the assay: cell-based or functional assay.
The target in assay [2] is T2, recombinant cynomolgus monkey IL-13 (cynomolgus monkey, UniProt Q0PW92 21-132).
T2 construct: bought; also called rc-IL-13; cIL-13
In words: SPR. Background: In SPR one partner is held on a chip, and binding of the other changes the refractive index at the surface.

Assay [3] has as its target T3, human TSLP (human, UniProt Q969D9 29-159).
T3 construct: also called hTSLP; rhTSLP
In words: SPR.

The target of assay [4] is T1, recombinant human IL-13. Nature of the assay: SPR.
Assay [5] concerns the target T3, human TSLP. Nature of the assay: cell-based or functional assay.
Assay [6] addresses T1, recombinant human IL-13. In words: cell-based or functional assay. The source holds these as a separate data set.
Assay [7] has as its target T4, cynomolgus monkey (cyno) TSLP (cynomolgus monkey, UniProt A0A7N9CAT7 29-159).
T4 construct: also called cTSLP; cynomolgus TSLP
In words: SPR.

For assay [8], the target named is T5, hTSLP-His (human, UniProt Q969D9 29-159, limits assumed). Nature of the assay: cell-based or functional assay.
In assay [9] the target is T5, hTSLP-His. In words: competition ELISA, 7 nM TSLP-His pre-incubated with antibody; competitor Tezepelumab coated. In general terms: ELISA stands for enzyme-linked immunosorbent assay.
Assay [10] addresses T3, human TSLP. In words: yeast surface display, affinity maturation library.
Assay [11] concerns the target T3, human TSLP. Nature of the assay: SPR. This is another data set of the same source.
The target in assay [12] is T1, recombinant human IL-13. In words: SPR. The source holds these as a separate data set.

The text below walks through data of patent US20240059769A1 (BIOLOJIC DESIGN, published 2024).

Like-named read-outs stand apart in the source and are kept apart here.

T4 sequence (A0A7N9CAT7 entry or part of it): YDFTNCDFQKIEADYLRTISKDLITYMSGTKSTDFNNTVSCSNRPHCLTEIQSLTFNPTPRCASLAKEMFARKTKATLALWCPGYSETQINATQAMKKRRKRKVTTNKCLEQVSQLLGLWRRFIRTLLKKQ
T2 sequence (Q0PW92 entry or part of it): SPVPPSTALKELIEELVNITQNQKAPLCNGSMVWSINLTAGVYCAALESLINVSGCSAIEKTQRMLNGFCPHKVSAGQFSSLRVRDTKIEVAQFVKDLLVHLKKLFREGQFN
T1 sequence (P35225 35-146 limits assumed): as the sequence (Q0PW92 entry or part of it) above, with S1G, K10R, V42M, N67S, R83H, V100L counted along it

B1: BDG38.132 (antibody, V domains shown)
VH: QMQLVESGGGVVQPGRSLRLSCAASGFEFRTYGMHWVRQAPGKGLEWVGVIWDDGSNTHYADSVKGRFTITRDNSKNTLNLQMNSLRAEDTAVYYCVRAPQWYLTAEAFDLWGQGTMVTVSS
VL: SYILTQPPSVSVAPGETATITCGGNLIGARLVHWYQQKPGQAPVLVIYDDSDRPSRIPERFSGSNIGNTATLTISRVEAGDEADYYCQVWDYSSDHMVFGGGTKLTVL
notes: IgG1
For B1, in the assay with recombinant human IL-13 [1], the “HEK-IL-13 [nM] (IC50, STAT6 reporter)” value amounted to 0.0899 nM. In addition, the Kd (in general, the concentration at which binding is half-saturated) came to 0.0563 nM in assay [2], 0.00341 nM with human TSLP [3], 0.0178 nM in the assay with recombinant human IL-13 [4] and 0.321 pM in assay [7]. Besides, the koff – broadly, the rate constant with which the complex falls apart – in [2] is 0.00201 s⁻¹; in the assay with human TSLP [3], 3.55e-05 s⁻¹; with recombinant human IL-13 [4] it was 0.000184 s⁻¹; in assay [7], 2.19e-06 s⁻¹. The kon – broadly, the second-order rate constant of association – stood at 3.58e+07 M⁻¹ s⁻¹ in assay [2], 1.04e+07 M⁻¹ s⁻¹ in the assay with human TSLP [3], 1.03e+07 M⁻¹ s⁻¹ in the assay with recombinant human IL-13 [4] and 6.83e+06 M⁻¹ s⁻¹ in assay [7]. Moreover, the “IC50 TARC” value with human TSLP [5] was determined as 22.4 nM. Also, in the assay with recombinant human IL-13 [6], the “IC50 CD23” value is 0.43 nM. For the same molecule, the “IC50 [pM], STAT5 phosphorylation inhibition in MUTZ5 cells” value with hTSLP-His [8] was determined as 0.386 pM. In addition, the IC50 (usually the midpoint of a concentration-inhibition curve) in the assay with hTSLP-His [9] worked out at 9.2 nM.

B2: Ab clone 38.021 (yeast surface display) (scFv, V domains shown)
VH: QMQLVESGGGVVQPGRSLRLSCAASGFAFDTYGMHWVRQAPGKGLEWVAVIWYDGSNTVYADSVKGRFTITRDNSKNTLNLQMNSLRAEDTAVYYCARAPQWYLSAEAFDLWGQGTMVTVSS
VL: SYVLTQPPSVSVAPGQTARITCGGNLIGSKLVHWYQQKPGQAPVLVVYDDSDRPSRIPERFSGSNSGNTATLTISRVEAGDEADYYCQVWDHSSDHYVFGGGTKLTVL
notes: YSD clone; also called BDG38_021
B2: the binding result in the assay with human TSLP [10] is “binds”.

B3: Ab clone 38.018 (yeast surface display) (scFv, V domains shown)
VH: QMQLVESGGGVVQPGRSLRLSCAASGFAFRTYGMHWVRQAPGKGLEWVAVIWDDGSNTHYADSVKGRFTITRDNSKNTLNLQMNSLRAEDTAVYYCARAPQWYLSAEAFDLWGQGTMVTVSS
VL: SYVLTQPPSVSVAPGQTARITCGGNLIGSKLVHWYQQKPGQAPVLVVYDDSDRPSRIPERFSGSNSGNTATLTISRVEAGDEADYYCQVWDHSSDHVVFGGGTKLTVL
notes: YSD clone; also called BDG38_018
On to B3, for which, in the assay with human TSLP [10], the binding result is listed as “binds”.

B4: Ab clone 38.019 (yeast surface display) (scFv, V domains shown)
VH: QMQLVESGGGVVQPGRSLRLSCAASGFAFRTYGMHWVRQAPGKGLEWVAVIWYDGSNTHYADSVKGRFTITRDNSKNTLNLQMNSLRAEDTAVYYCVRAPQWYLSAEAFDLWGQGTMVTVSS
VL: SYVLTQPPSVSVAPGQTARITCGGNLIGSKLVHWYQQKPGQAPVLVVYDDSDRPSRIPERFSGSNSGNTATLTISRVEAGDEADYYCQVWDYSSNHVVFGGGTKLTVL
notes: YSD clone; also called BDG38_019
B4: the binding result with human TSLP [10] is recorded as “binds”.

B5: Ab clone 38.040 (yeast surface display) (scFv, V domains shown)
VH: QMQLVESGGGVVQPGRSLRLSCAASGFDFRTYGMHWVRQAPGKGLEWVAVIWYDGSITHYADSVKGRFTITRDNSKNTLNLQMNSLRAEDTAVYYCVRAPQWYLTAEAFDLWGQGTMVTVSS
VL: SYVLTQPPSVSVAPGQTARITCGGNLIGTKLVHWYQQKPGQAPVLVVYDDSDRPSRIPERFSGSNSGNTATLTISRVEAGDEADYYCQVWDHNEDEVVFGGGTKLTVL
notes: YSD clone; also called BDG38_040
Regarding B5, the binding result in the assay with human TSLP [10] was “binds”.

B6: BDG38.076 (antibody, V domains shown)
VH: QMQLVESGGGVVQPGRSLRLSCAASGFAFRTYGMHWVRQAPGKGLEWVAVIWDDGSATHYADSVKGRFTITRDNSKNTLNLQMNSLRAEDTAVYYCVRAPQWYLTAEAFDLWGQGTMVTVSS
VL: SYVLTQPPSVSVAPGETASITCGGNMIGGYLVHWYQQKPGQAPLLVIYDDVDRPARIPERFSGSNSGNTATLTISRVEAGDEADYYCQVWDHDTNHMVFGGGTKLTVL
notes: IgG1
Take B6: the “HEK-IL-13 [nM] (IC50, STAT6 reporter)” value in the assay with recombinant human IL-13 [1] was found to be 0.0494 nM. The Kd was found to be 0.822 nM in [2], 1.61 pM with human TSLP [11], 0.0354 nM in the assay with recombinant human IL-13 [12] and 0.00512 pM in [7]. The dissociation rate constant (koff) was found to be 0.00671 s⁻¹ in assay [2], 3.22e-05 s⁻¹ in the assay with human TSLP [11], 0.000231 s⁻¹ with recombinant human IL-13 [12] and 3.99e-08 s⁻¹ in assay [7]. Moreover, the kon was determined as 8.16e+06 M⁻¹ s⁻¹ in [2], 2e+07 M⁻¹ s⁻¹ in the assay with human TSLP [11], 6.53e+06 M⁻¹ s⁻¹ in the assay with recombinant human IL-13 [12] and 7.8e+06 M⁻¹ s⁻¹ in assay [7]. The “IC50 TARC” value with human TSLP [5] was determined as 3.21 nM. For the same molecule, in the assay with recombinant human IL-13 [6], the “IC50 CD23” value worked out at 0.308 nM. Also, the “IC50 [pM], STAT5 phosphorylation inhibition in MUTZ5 cells” value with hTSLP-His [8] was 30.1 pM. In the assay with hTSLP-His [9], this molecule yielded an IC50 of 5.38 nM.

B7: Ab clone 38.026 (yeast surface display) (scFv, V domains shown)
VH: QMQLVESGGGVVQPGRSLRLSCAASGFAFRTYGMHWVRQAPGKGLEWVAVIWYDGSATHYADSVKGRFTITRDNSKNTLNLQMNSLRAEDTAVYYCVRAPQWYLSAEAFDLWGQGTMVTVSS
VL: SYVLTQPPSVSVAPGQTATITCGGNLIGSKLVHWYQQKPGQAPVLVVYDDSDRPSRIPERFSGSNIGNTATLTISRVEAGDEADYYCQVWDHSSDHVVFGGGTKLTVL
notes: YSD clone; also called BDG38_026
Turning to B7, the binding result with human TSLP [10] was “binds”.

B8: BDG38.137 (antibody, V domains shown)
VH: QMQLVESGGGVVQPGQSLRLSCAASGFEFRTYGMHWVRQAPGKGLEWVAVIWDDGSNTHYADSVKGRFTITRDNSKNTLNLQMNSLRAEDTAVYYCVRAPQWYLTAEAFDLWGQGTMVTVSS
VL: SYVLTQPPSVSVAPGETATITCGGNLIGARLVHWYQQKPGQAPVLVIYDDSDRPSHIPERFSGSNSGNTATLTISRVEAGDEADYYCQVWDYSADTMVFGGGTKLTVL
notes: IgG1
Regarding B8, the “HEK-IL-13 [nM] (IC50, STAT6 reporter)” value with recombinant human IL-13 [1] turned out to be 0.195 nM. In the assay with human TSLP [3], this molecule yielded a Kd of 0.0161 nM, a koff of 7.01e-05 s⁻¹ and a kon of 4.36e+06 M⁻¹ s⁻¹. Also, in the assay with recombinant human IL-13 [4], the Kd stood at 0.058 nM, the koff was 0.000252 s⁻¹ and the kon was determined as 4.34e+06 M⁻¹ s⁻¹. In addition, in the assay with human TSLP [5], the “IC50 TARC” value amounted to 0.823 nM. Also, in the assay with recombinant human IL-13 [6], the “IC50 CD23” value worked out at 0.373 nM. For the same molecule, in the assay with hTSLP-His [8], the “IC50 [pM], STAT5 phosphorylation inhibition in MUTZ5 cells” value worked out at 1.85 pM. Moreover, the IC50 in the assay with hTSLP-His [9] came out at 10.9 nM.

B9: Ab clone 38.014 (yeast surface display) (scFv, V domains shown)
VH: QMQLVESGGGVVQPGRSLRLSCAASGFAFRTYGMHWVRQAPGKGLEWVAVIWYDGSNTHYADSVKGRFTITRDNSKNTLNLQMNSLRAEDTAVYYCVRAPQWYLSAEAFDLWGQGTMVTVSS
VL: SYVLTQPPSVSVAPGQTARITCGGNLIGAKLVHWYQQKPGQAPVLVVYDDSDRPSRIPERFSGSNSGNTATLTISRVEAGDEADYYCQVWDHSSDHVVFGGGTKLTVL
notes: YSD clone; also called BDG38_014
Consider B9, for which the binding result with human TSLP [10] is “binds”.

B10: BDG38.126 (antibody, V domains shown)
VH: QMQLVESGGGVVQPGRSLRLSCAASGFEFRTYGMHWVRQAPGKGLEWVGVIWDDGSNTHYADSVKGRFTITRDNSKNTLNLQMNSLRAEDTAVYYCVRAPQWYLTAEAFDLWGQGTMVTVSS
VL: SYILTQPPSVSVAPGQTARITCGGNLIGAKLVHWYQQKPGQAPVLVIYDDSDRPSRIPERFSGSNIGNTATLTIERVEEGDEADYYCQVWDYSSDHMVFGGGTKLTVL
notes: IgG1
With B10, the “HEK-IL-13 [nM] (IC50, STAT6 reporter)” value in the assay with recombinant human IL-13 [1] came to 0.079 nM. For the same molecule, in the assay with human TSLP [3], the Kd stood at 0.0174 nM, the koff came out at 6.72e-05 s⁻¹ and the kon is 3.87e+06 M⁻¹ s⁻¹. In the assay with recombinant human IL-13 [4], the Kd is 0.0291 nM, the koff came out at 0.000143 s⁻¹ and the kon was 4.92e+06 M⁻¹ s⁻¹. For the same molecule, the “IC50 TARC” value with human TSLP [5] is 2.58 nM. In the assay with recombinant human IL-13 [6], the “IC50 CD23” value came to 0.0868 nM. Moreover, the “IC50 [pM], STAT5 phosphorylation inhibition in MUTZ5 cells” value in the assay with hTSLP-His [8] came to 0.0421 pM. Also, in the assay with hTSLP-His [9], the IC50 came to 5.95 nM.
